Broadly, the EC50 is the concentration at which the effect is half-maximal.

The target in assay [1] is T1, human DR4 (human, UniProt O00220 24-239, limits assumed).
T1 construct: Recombinant DR4 coated on ELISA wells; also called death receptor 4; TRAIL-R1
T1 sequence: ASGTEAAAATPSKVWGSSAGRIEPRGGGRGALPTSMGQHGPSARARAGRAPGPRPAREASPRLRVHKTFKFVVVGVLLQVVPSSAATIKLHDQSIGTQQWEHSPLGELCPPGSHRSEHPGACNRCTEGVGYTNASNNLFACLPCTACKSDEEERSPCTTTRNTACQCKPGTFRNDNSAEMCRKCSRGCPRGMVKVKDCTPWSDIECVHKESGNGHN
Description: ELISA, half-log dilutions on wells coated with 1 microgram/ml human DR4, anti-human Fc HRP. For orientation: An ELISA detects its analyte on a solid surface through an enzyme-linked reagent.
Description: (§1) The bivalent SBP were detected using an anti-human Fc antibody conjugated to HRP.

Another assay deals with T2, DR4 on Ramos cells (human, UniProt O00220 24-468).
T2 sequence (looked up): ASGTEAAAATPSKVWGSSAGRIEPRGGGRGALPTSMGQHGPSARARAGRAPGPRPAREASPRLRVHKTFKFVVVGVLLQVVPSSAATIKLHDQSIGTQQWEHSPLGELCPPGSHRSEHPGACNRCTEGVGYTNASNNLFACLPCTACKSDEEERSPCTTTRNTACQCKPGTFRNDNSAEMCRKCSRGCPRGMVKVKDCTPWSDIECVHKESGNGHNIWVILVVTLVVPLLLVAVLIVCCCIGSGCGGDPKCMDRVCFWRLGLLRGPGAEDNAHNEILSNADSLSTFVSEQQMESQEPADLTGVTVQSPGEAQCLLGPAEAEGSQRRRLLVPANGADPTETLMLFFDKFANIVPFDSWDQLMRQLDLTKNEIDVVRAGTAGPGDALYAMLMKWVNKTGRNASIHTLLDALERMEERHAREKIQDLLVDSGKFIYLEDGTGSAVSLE
The experiment in a line: cell-based or functional assay.

In the next assay the target is T3, Rhesus (NHP-2) DR5-Fc (Rhesus).
T3 construct: also called Rhesus DR5-Fc
The experiment in a line: ELISA, wells coated with 1 microgram/ml antigen, half-log dilutions, detection with anti-VpreB-HRP; inset table has no row label, the text calls the values half-maximal binding concentrations; unit from the axis Log[Agent] (nM) [panel D].

Assay [2] addresses T4, human DR5 (human, UniProt O14763 52-183, limits assumed).
T4 construct: also called sDR5 (Peprotech); death receptor 5
Description: antigen ELISA, half-log dilutions on coated human DR5, anti-human Fc-HRP.
Description: as §1

For a further assay, the target named is T5, mouse DR5-Fc (mouse, UniProt Q9QZM4 53-177, limits assumed).
T5 construct: also called mouse death receptor; not shown: Fc part
T5 sequence (looked up): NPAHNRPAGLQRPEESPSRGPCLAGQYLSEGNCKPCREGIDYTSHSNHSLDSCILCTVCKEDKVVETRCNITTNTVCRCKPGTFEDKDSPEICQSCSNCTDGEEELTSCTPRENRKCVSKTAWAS
Description: ELISA, 100 ng/well mouse DR5-Fc, 10 nM bivalent SBP, detection HRP-aVpreB.

The target in another assay is T6, DcR2 (human, UniProt Q9UBN6 56-189, limits assumed).
T6 construct: Recombinant protein coated on wells; also called decoy receptor DcR2
T6 sequence: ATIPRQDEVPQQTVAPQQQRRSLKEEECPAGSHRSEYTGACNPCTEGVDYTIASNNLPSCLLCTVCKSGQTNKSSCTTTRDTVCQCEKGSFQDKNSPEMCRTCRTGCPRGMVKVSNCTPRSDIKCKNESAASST
The experiment in a line: ELISA, bivalent SBP on TRAIL receptor family proteins [C].

A further assay has as its target T7, DcR1 (human, UniProt O14798 24-159, limits assumed).
T7 construct: Recombinant protein coated on wells; also called decoy receptor DcR1
T7 sequence: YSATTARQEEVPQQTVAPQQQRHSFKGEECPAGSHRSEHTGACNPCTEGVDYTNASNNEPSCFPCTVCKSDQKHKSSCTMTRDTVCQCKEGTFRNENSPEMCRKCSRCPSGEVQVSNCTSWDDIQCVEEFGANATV
The description is as above.

The target in assay [3] is T1, human DR4. Description: antigen ELISA, half-log dilutions on coated human DR4, anti-human Fc-HRP.
Description: as §1
Assay [4] has as its target T4, human DR5. Description: ELISA, half-log dilutions on wells coated with 1 microgram/ml human DR5, anti-human Fc HRP.
Description: as §1
The target in assay [5] is T8, Cynomolgus (NHP-1) DR5-Fc (Cynomolgus).
T8 construct: also called Cynomolgus DR5-Fc
The experiment in a line: ELISA, wells coated with 1 microgram/ml antigen, half-log dilutions of SgG, detection with anti-VpreB-HRP; unit taken from the axis Lg(nM) [panel B].
Description: (§2) Streptavidin-HRP or a monoclonal anti-VpreB-HRP conjugated antibody was used for detection and the assay developed with a TMB solution.

In assay [6] the target is T9, Cynomolgus (NHP-1) DR4-Fc (Cynomolgus).
T9 construct: also called Cynomolgus DR4-Fc
Description: ELISA, wells coated with 1 microgram/ml antigen, half-log dilutions of SgG, detection with anti-VpreB-HRP; unit taken from the axis Lg(nM) [panel A].
Description: as §2

The target in the next assay is T10, Rhesus (NHP-2) DR4-Fc (Rhesus, UniProt F6TP00 24-239).
T10 construct: also called Rhesus DR4-Fc
T10 sequence: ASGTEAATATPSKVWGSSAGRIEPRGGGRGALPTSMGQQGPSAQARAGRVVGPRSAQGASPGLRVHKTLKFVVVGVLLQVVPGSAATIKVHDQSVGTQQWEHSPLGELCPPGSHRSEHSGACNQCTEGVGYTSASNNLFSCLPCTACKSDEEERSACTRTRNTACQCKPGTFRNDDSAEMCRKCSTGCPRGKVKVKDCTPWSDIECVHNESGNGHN
Description: ELISA, wells coated with 1 microgram/ml antigen, half-log dilutions, detection with anti-VpreB-HRP; inset table has no row label, the text calls the values half-maximal binding concentrations; unit from the axis Log[Agent] (nM) [panel C].

T4 sequence (O14763 other isoform, or with tags, fused parts or gaps limits assumed): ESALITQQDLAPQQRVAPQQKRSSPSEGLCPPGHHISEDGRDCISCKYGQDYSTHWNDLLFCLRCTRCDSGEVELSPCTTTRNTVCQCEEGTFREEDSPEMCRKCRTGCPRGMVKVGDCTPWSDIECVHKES
Description for DcR1: as §1
Description for DcR2: as §1
Description for Rhesus (NHP-2) DR4-Fc: as §2
Description for Rhesus (NHP-2) DR5-Fc: as §2

B1: 3631-G09 bivalent SBP (other)
VH: EVQLVESGGGLVKPGGSLRLSCAASGFTFSTYGMHWVRQAPGKGLEWVAGINYSGNNKYYADSVKGRFTISRDNAKNSLYLQMNSLRAEDTAVYYCARDHSTWLSRHLDYWGQGTLVTVSS
surrogate light: QPVLHQPPAMSSALGTTIRLTCTLRNDHDIGVYSVYWYQQRPGHPPRFLLRYFSQSDKSQGPQVPPRFSGSKDVARNRGYLSISELQPEDEAMYYCAMGARSSVTHVFGSGTQLTVLSQPKATPSVTLFPPSSEELQANKATLVCLMNDFYPGILTVTWKADGTPITQGVEMTTPSKQSNNKYAASSYLSLTPEQWRSRRSYSCQVMHEGSTVEKTVAPAECS
notes: IgG1-like surroglobulin: full length heavy chain paired with surrogate light chain fusion 1, made in HEK293, Protein A purified; also called SL231; SL-231; copies: 2 + 2
As to B1, the concentration giving a half-maximal response (EC50) with human DR4 [1] is 0.0298 nM; with Rhesus (NHP-2) DR5-Fc, 0.627 nM; in the assay with human DR5 [2], 0.05 nM; with human DR4 [3], about 0.03 nM; with human DR5 [4], 0.0502 nM. Also, the “EC50 (nM), inhibition of Ramos cell proliferation (WST-1), SgG cross-linked with anti-human-Fc antibody or Protein G” value in the assay with DR4 on Ramos cells amounted to 0.498 nM. Further, the binding result with mouse DR5-Fc was “no binding (tested: 10 nM)”; in the assay with DcR2, “no binding (tested: 1000 nM)”; with DcR1 it was “no binding (tested: 1000 nM)”.

B2: 3706-A02 (SL466) (other)
VH: EVQLVESGGGLVKPGGSLRLSCAASGFTFSTYGMHWVRQAPGKGLEWVAGINYSGNNKYYADSVKGRFTISRDNAKNSLYLQMNSLRAEDTAVYYCARDSSTTRTRALDYWGQGTLVTVSS
light: QPVLHQPPAMSSALGTTIRLTCTLRNDHDIGVYSVYWYQQRPGHPPRFLLRYFSQSDKSQGPQVPPRFSGSKDVARNRGYLSISELQPEDEAMYYCAMGARSSVTHVFGSGTQLTVLSQPKATPSVTLFPPSSEELQANKATLVCLMNDFYPGILTVTWKADGTPITQGVEMTTPSKQSNNKYAASSYLSLTPEQWRSRRSYSCQVMHEGSTVEKTVAPAECS
notes: Bivalent SBP (SgG); also called SgG
With B2, the EC50 in assay [5] was 0.273 nM; with Rhesus (NHP-2) DR5-Fc, 0.294 nM; in assay [6], 6.36 nM; with Rhesus (NHP-2) DR4-Fc it was 146 nM.

(Values after US20150004162A1 (I2 PHARMACEUTICALS, published 2015).)
